Experimental data as given in publication PMC8267817.

Biological target: T1, phosphorylated peptide CKATQA(p)SQEY corresponding to the C-terminal end of γ-H2AX (human)
T1 sequence (peptide, phosphoserine at S139 (7th letter of the printed peptide)): CKATQASQEY
Experiment: SPR; Biacore T200, 25 °C, HBS-P (10 mM HEPES pH 7.4, 150 mM NaCl, 0.05% P20); phosphopeptide immobilised by thiol coupling of its N-terminal cysteine; VHH injected 120 s; Kd from equilibrium response fitted to a 1:1 model; fractional occupancy at saturating amounts (C6 180 nM, C6B 80 nM)

B1: C6 nanobody (purified, monovalent) (VHH)
VHH: DVQLVESGGGLVQAGDSLRLSCAASGLTFSRYAMGWFRQAPGNEREFVAVITASGRTTLYADSVKGRFTISRDNAKNTVALQMQSLKPEDTAVYYCAADYGTSRYTRRQSEYEYWGQGTQVTVSS
Kd: 11 nM
